This is an account of results in patent US20240270821A1, “GIP/GLP1/GCG TRI-RECEPTOR AGONISTS AND USES THEREOF” (priority 2023, published 2024).

B1: Example 619 (peptide)
chain: YXQGTXTSDXSILLDKKAQXAFIEYLEEGGPSSGAPPPSGGGE
modifications: non-natural residues; Lys acylated C18 diacid; C-terminal amide; synthetic construct; SITE 2: note = 2-Aminoisobutyric Acid; SITE 6: note = alpha-methyl-2-fluoro-L-phenylalanine; SITE 10: note = 3-(4-Pyridyl)-L-alanine; SITE 17: note = Lysine is chemically modified through conjugation of the epsilon-amino group of the Lysine side chain with (gamma-Glu)2-CO-(CH2)1
B2: Example 624 (peptide)
chain: B1 chain with L13X, A35E, G41T
modifications: non-natural residues; lipidated Lys; C-terminal amide; synthetic construct; SITE 2: note = 2-Aminoisobutyric Acid; SITE 6: note = alpha-methyl-2-fluoro-L-phenylalanine; SITE 10: note = 3-(4-Pyridyl)-L-alanine; SITE 13: note = alpha-methyl-leucine; SITE 17: note = Lysine is chemically modified through conjugation of the epsilon-amino group of the Lysine
B3: Example 623 (peptide)
chain: B1 chain with L13X, G41E
modifications: C-terminal amide; lysine acylated with (γ-Glu)2-C18 diacid; synthetic construct; SITE 2: note = 2-Aminoisobutyric Acid; SITE 6: note = alpha-methyl-2-fluoro-L-phenylalanine; SITE 10: note = 3-(4-Pyridyl)-L-alanine; SITE 13: note = alpha-methyl-leucine; SITE 17: note = Lysine is chemically modified through conjugation of the epsilon-amino group of the Lysine
B4: Example 621 (peptide)
chain: B1 chain with G41E
modifications: non-natural residues, lysine acylation, C-terminal amide; synthetic construct; SITE 2: note = 2-Aminoisobutyric Acid; SITE 6: note = alpha-methyl-2-fluoro-L-phenylalanine; SITE 10: note = 3-(4-Pyridyl)-L-alanine; SITE 17: note = Lysine is chemically modified through conjugation of the epsilon-amino group of the Lysine side chain with (gamma-Glu)2-CO-(CH2)1
B5: Example 622 (peptide)
chain: B1 chain with L13X, G41T
modifications: non-natural residues; (γGlu)2-C18 diacid acyl; C-terminal amide; synthetic construct; SITE 2: note = 2-Aminoisobutyric Acid; SITE 6: note = alpha-methyl-2-fluoro-L-phenylalanine; SITE 10: note = 3-(4-Pyridyl)-L-alanine; SITE 13: note = alpha-methyl-leucine; SITE 17: note = Lysine is chemically modified through conjugation of the epsilon-amino group of the Lysine
B6: Example 625 (peptide)
chain: B1 chain with L13X, A35E, G41E
modifications: non-natural residues; lipidated Lys; C-terminal amide; synthetic construct; SITE 2: note = 2-Aminoisobutyric Acid; SITE 6: note = alpha-methyl-2-fluoro-L-phenylalanine; SITE 10: note = 3-(4-Pyridyl)-L-alanine; SITE 13: note = alpha-methyl-leucine; SITE 17: note = Lysine is chemically modified through conjugation of the epsilon-amino group of the Lysine
B7: Example 618 (peptide)
chain: B1 chain with G41S
modifications: non-natural residues, C18 diacid acylation, C-terminal amide; synthetic construct; SITE 2: note = 2-Aminoisobutyric Acid; SITE 6: note = alpha-methyl-2-fluoro-L-phenylalanine; SITE 10: note = 3-(4-Pyridyl)-L-alanine; SITE 17: note = Lysine is chemically modified through conjugation of the epsilon-amino group of the Lysine side chain with (gamma-Glu)2-CO-(CH2)1
B8: Example 613 (peptide)
chain: YXQGTXTSDXSIXLDXKAQXEFIEXLLEGGPSSGAPPPSGE
modifications: Aib, αMeF(2F), 4Pal, Orn, (AEEA)2-γGlu-C18 diacid, amide; synthetic construct; SITE 2: note = 2-Aminoisobutyric Acid; SITE 6: note = alpha-methyl-2-fluoro-L-phenylalanine; SITE 10: note = 3-(4-Pyridyl)-L-alanine; SITE 13: note = alpha-methyl-leucine; SITE 16: note = L-ornithine; SITE 17: note = Lysine is chemically modified through conjugation of the epsil
B9: Example 616 (peptide)
chain: B8 chain with L27I
modifications: non-natural residues; acylated Lys; C-terminal amide; synthetic construct; SITE 2: note = 2-Aminoisobutyric Acid; SITE 6: note = alpha-methyl-2-fluoro-L-phenylalanine; SITE 10: note = 3-(4-Pyridyl)-L-alanine; SITE 13: note = alpha-methyl-leucine; SITE 16: note = L-ornithine; SITE 17: note = Lysine is chemically modified through conjugation of the epsil
B10: Example 614 (peptide)
chain: B8 chain with L27I
modifications: non-natural residues, acylated Lys, C-terminal amide; synthetic construct; SITE 2: note = 2-Aminoisobutyric Acid; SITE 6: note = alpha-methyl-2-fluoro-L-phenylalanine; SITE 10: note = 3-(4-Pyridyl)-L-alanine; SITE 13: note = alpha-methyl-leucine; SITE 16: note = L-ornithine; SITE 17: note = Lysine is chemically modified through conjugation of the epsil
B11: Example 615 (peptide)
chain: B8 chain
modifications: Aib, αMeF(2F), 4Pal, Orn, Me4Pal, αMeY; acylated lysine; amide; synthetic construct; SITE 2: note = 2-Aminoisobutyric Acid; SITE 6: note = alpha-methyl-2-fluoro-L-phenylalanine; SITE 10: note = 3-(4-Pyridyl)-L-alanine; SITE 13: note = alpha-methyl-leucine; SITE 16: note = L-ornithine; SITE 17: note = Lysine is chemically modified through conjugation of the epsil

Changes are numbered by the printed parent chain.

human glucagon receptor (human), sequence (P47871 26-477): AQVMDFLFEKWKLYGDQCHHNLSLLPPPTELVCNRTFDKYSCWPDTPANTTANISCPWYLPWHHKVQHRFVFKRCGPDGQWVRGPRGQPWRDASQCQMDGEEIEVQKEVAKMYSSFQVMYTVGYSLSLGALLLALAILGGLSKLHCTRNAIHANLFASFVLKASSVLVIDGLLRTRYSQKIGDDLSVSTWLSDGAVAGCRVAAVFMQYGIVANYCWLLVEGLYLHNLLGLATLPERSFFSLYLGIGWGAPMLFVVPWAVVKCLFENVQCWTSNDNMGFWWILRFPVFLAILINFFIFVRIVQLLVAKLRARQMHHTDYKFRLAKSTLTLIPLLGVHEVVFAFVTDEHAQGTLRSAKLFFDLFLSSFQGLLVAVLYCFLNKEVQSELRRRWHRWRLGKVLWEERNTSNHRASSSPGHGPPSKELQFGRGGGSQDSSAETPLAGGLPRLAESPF

The first experiment concerns the target human glucagon receptor (human) (UniProt P47871). Nature of the experiment: cell-based or functional assay.
Regarding B1, the Relative cAMP EC50 amounted to 6.34 nM and the cAMP Rel EC50 (in the presence of 1% HSA) worked out at 819 nM.

Regarding B2, the Relative cAMP EC50 came out at 8.42 nM and the cAMP Rel EC50 (in the presence of 1% HSA) amounted to 808 nM.

Turning to B3, the Relative cAMP EC50 came out at 7.94 nM and the cAMP Rel EC50 (in the presence of 1% HSA) was found to be 832 nM.

In the case of B4, the Relative cAMP EC50 was 6.81 nM and the cAMP Rel EC50 (in the presence of 1% HSA) stood at 901 nM.

Take B5: the Relative cAMP EC50 is 7.7 nM and the cAMP Rel EC50 (in the presence of 1% HSA) stood at 641 nM.

Turning to B6, the Relative cAMP EC50 was 8.53 nM and the cAMP Rel EC50 (in the presence of 1% HSA) came out at 657 nM.

For B7, the Relative cAMP EC50 worked out at 5.57 nM and the cAMP Rel EC50 (in the presence of 1% HSA) is 691 nM.

With B8, the Relative cAMP EC50 amounted to 20.4 nM and the cAMP Rel EC50 (in the presence of 1% HSA) is 1410 nM.

For B9, the Relative cAMP EC50 was 6.58 nM and the cAMP Rel EC50 (in the presence of 1% HSA) came out at 734 nM.

For B10, the Relative cAMP EC50 came to 6.36 nM and the cAMP Rel EC50 (in the presence of 1% HSA) is 724 nM.

For the molecule B11, the Relative cAMP EC50 is 3.93 nM and the cAMP Rel EC50 (in the presence of 1% HSA) was 697 nM.

The target of the next experiment is T1, human GIP receptor (human) (UniProt P48546).
T1 sequence (looked up): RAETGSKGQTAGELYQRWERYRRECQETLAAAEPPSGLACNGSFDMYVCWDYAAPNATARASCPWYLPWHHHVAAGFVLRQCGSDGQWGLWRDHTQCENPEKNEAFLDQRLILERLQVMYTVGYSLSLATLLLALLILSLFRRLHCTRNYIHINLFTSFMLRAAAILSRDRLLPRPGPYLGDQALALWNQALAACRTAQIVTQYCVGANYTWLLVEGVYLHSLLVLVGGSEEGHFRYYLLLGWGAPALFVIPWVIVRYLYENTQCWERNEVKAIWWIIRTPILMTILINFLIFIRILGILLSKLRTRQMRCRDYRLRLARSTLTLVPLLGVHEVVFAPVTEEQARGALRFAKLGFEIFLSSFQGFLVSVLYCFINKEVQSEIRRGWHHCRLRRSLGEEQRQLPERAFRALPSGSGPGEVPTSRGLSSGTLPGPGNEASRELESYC
Nature of the experiment: cell-based or functional assay.
For B1, the Relative cAMP EC50 came out at 0.0685 nM and the cAMP Rel EC50 (in the presence of 1% HSA) came to 6.78 nM.

Turning to B2, the Relative cAMP EC50 was 0.0222 nM and the cAMP Rel EC50 (in the presence of 1% HSA) is 1.17 nM.

On to B3, for which the Relative cAMP EC50 is 0.0224 nM and the cAMP Rel EC50 (in the presence of 1% HSA) turned out to be 1.48 nM.

For the molecule B4, the Relative cAMP EC50 was 0.0661 nM and the cAMP Rel EC50 (in the presence of 1% HSA) is 7.31 nM.

Take B5: the Relative cAMP EC50 came to 0.0148 nM and the cAMP Rel EC50 (in the presence of 1% HSA) is 1.19 nM.

For B6, the Relative cAMP EC50 came to 0.0291 nM and the cAMP Rel EC50 (in the presence of 1% HSA) worked out at 1.81 nM.

Turning to B7, the Relative cAMP EC50 is 0.0418 nM and the cAMP Rel EC50 (in the presence of 1% HSA) came to 4.63 nM.

On to B8, for which the Relative cAMP EC50 stood at 0.00925 nM and the cAMP Rel EC50 (in the presence of 1% HSA) turned out to be 0.791 nM.

Take B9: the Relative cAMP EC50 is 0.00727 nM and the cAMP Rel EC50 (in the presence of 1% HSA) came to 0.467 nM.

For B10, the Relative cAMP EC50 was 0.0065 nM and the cAMP Rel EC50 (in the presence of 1% HSA) was 0.597 nM.

For B11, the Relative cAMP EC50 was 0.00825 nM and the cAMP Rel EC50 (in the presence of 1% HSA) was found to be 0.95 nM.

In the next experiment the target is hGLP-1R (Homo sapiens, UniProt P43220). Briefly: cell-based or functional assay.
hGLP-1R, sequence (P43220 24-463): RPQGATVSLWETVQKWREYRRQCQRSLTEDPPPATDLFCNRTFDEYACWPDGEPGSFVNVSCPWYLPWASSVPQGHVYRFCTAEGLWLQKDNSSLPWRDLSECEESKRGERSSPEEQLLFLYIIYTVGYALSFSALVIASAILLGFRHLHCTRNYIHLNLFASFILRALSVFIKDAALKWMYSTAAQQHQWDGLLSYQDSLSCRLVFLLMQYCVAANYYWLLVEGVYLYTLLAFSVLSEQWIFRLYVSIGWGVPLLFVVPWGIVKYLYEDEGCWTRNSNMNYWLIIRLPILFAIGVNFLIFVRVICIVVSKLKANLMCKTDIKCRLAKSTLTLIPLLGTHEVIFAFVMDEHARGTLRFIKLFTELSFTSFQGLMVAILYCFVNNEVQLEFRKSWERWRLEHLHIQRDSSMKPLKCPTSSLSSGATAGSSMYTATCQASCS
Regarding B1, the Relative cAMP EC50 was found to be 0.992 nM and the cAMP Rel EC50 (in the presence of 1% HSA) was 94 nM.

For B2, the Relative cAMP EC50 was 0.95 nM and the cAMP Rel EC50 (in the presence of 1% HSA) came out at 63.4 nM.

For B3, the Relative cAMP EC50 stood at 0.907 nM and the cAMP Rel EC50 (in the presence of 1% HSA) is 62.2 nM.

For B4, the Relative cAMP EC50 came out at 1.28 nM and the cAMP Rel EC50 (in the presence of 1% HSA) came to 111 nM.

Turning to B5, the Relative cAMP EC50 came to 0.776 nM and the cAMP Rel EC50 (in the presence of 1% HSA) was 52.3 nM.

Turning to B6, the Relative cAMP EC50 was determined as 1.16 nM and the cAMP Rel EC50 (in the presence of 1% HSA) stood at 72.1 nM.

Consider B7, for which the Relative cAMP EC50 turned out to be 1.53 nM and the cAMP Rel EC50 (in the presence of 1% HSA) worked out at 88.9 nM.

In the case of B8, the Relative cAMP EC50 is 0.698 nM and the cAMP Rel EC50 (in the presence of 1% HSA) was 81.6 nM.

Turning to B9, the Relative cAMP EC50 worked out at 0.29 nM and the cAMP Rel EC50 (in the presence of 1% HSA) was 28.9 nM.

For B10, the Relative cAMP EC50 was determined as 0.251 nM and the cAMP Rel EC50 (in the presence of 1% HSA) is 33.2 nM.

In the case of B11, the Relative cAMP EC50 worked out at 0.575 nM and the cAMP Rel EC50 (in the presence of 1% HSA) amounted to 82.9 nM.
